B1: GFP-PLD (superfolder GFP fused to the prion-like domain of NFAT5, a.a. 999-1454) (domain or fragment, human, UniProt O94916 999-1454, looked up)
chain: QIQNSVFQTMVQMQHSGDNQPQVNLFSSTKSMMSVQNSGTQQQGNGLFQQGNEMMSLQSGNFLQQSSHSQAQLFHPQNPIADAQNLSQETQGSLFHSPNPIVHSQTSTTSSEQMQPPMFHSQSTIAVLQGSSVPQDQQSTNIFLSQSPMNNLQTNTVAQEAFFAAPNSISPLQSTSNSEQQAAFQQQAPISHIQTPMLSQEQAQPPQQGLFQPQVALGSLPPNPMPQSQQGTMFQSQHSIVAMQSNSPSQEQQQQQQQQQQQQQQQQQSILFSNQNTMATMASPKQPPPNMIFNPNQNPMANQEQQNQSIFHQQSNMAPMNQEQQPMQFQSQSTVSSLQNPGPTQSESSQTPLFHSSPQIQLVQGSPSSQEQQVTLFLSPASMSALQTSINQQDMQQSPLYSPQNNMPGIQGATSSPQPQATLFHNTAGGTMNQLQNSPGSSQQTSGMFLFGIQNN
notes: NFAT5 (TonEBP), human, 1531 a.a. protein; prion-like domain (PLD), a.a; 999-1454; The methods for the bacterial construct say only 'NFAT5 PLD'; also called GFP-NFAT5 PLD; not shown: sfGFP, N-terminal, kept
B2: untagged NFAT5 PLD (PLD protein lacking the GFP tag) (domain or fragment, human, UniProt O94916 999-1454, looked up)
chain: B1 chain
notes: NFAT5 (TonEBP), human, 1531 a.a. protein; prion-like domain (PLD), a.a; 999-1454; source: E. coli BL21 (DE3) pLysS, purified from inclusion bodies (8 M urea extraction, Superdex 200)
B3: GFP-CTD (superfolder GFP fused to the C-terminal domain of NFAT5, a.a. 544-1531) (domain or fragment, human, UniProt O94916 544-1531, looked up)
chain: DPAAAGALNVNVKKEISSPARPCSFEEAMKAMKTTGCNLDKVNIIPNALMTPLIPSSMIKSEDVTPMEVTAEKRSSTIFKTTKSVGSTQQTLENISNIAGNGSFSSPSSSHLPSENEKQQQIQPKAYNPETLTTIQTQDISQPGTFPAVSASSQLPNSDALLQQATQFQTRETQSREILQSDGTVVNLSQLTEASQQQQQSPLQEQAQTLQQQISSNIFPSPNSVSQLQNTIQQLQAGSFTGSTASGSSGSVDLVQQVLEAQQQLSSVLFSAPDGNENVQEQLSADIFQQVSQIQSGVSPGMFSSTEPTVHTRPDNLLPGRAESVHPQSENTLSNQQQQQQQQQQVMESSAAMVMEMQQSICQAAAQIQSELFPSTASANGNLQQSPVYQQTSHMMSALSTNEDMQMQCELFSSPPAVSGNETSTTTTQQVATPGTTMFQTSSSGDGEETGTQAKQIQNSVFQTMVQMQHSGDNQPQVNLFSSTKSMMSVQNSGTQQQGNGLFQQGNEMMSLQSGNFLQQSSHSQAQLFHPQNPIADAQNLSQETQGSLFHSPNPIVHSQTSTTSSEQMQPPMFHSQSTIAVLQGSSVPQDQQSTNIFLSQSPMNNLQTNTVAQEAFFAAPNSISPLQSTSNSEQQAAFQQQAPISHIQTPMLSQEQAQPPQQGLFQPQVALGSLPPNPMPQSQQGTMFQSQHSIVAMQSNSPSQEQQQQQQQQQQQQQQQQQSILFSNQNTMATMASPKQPPPNMIFNPNQNPMANQEQQNQSIFHQQSNMAPMNQEQQPMQFQSQSTVSSLQNPGPTQSESSQTPLFHSSPQIQLVQGSPSSQEQQVTLFLSPASMSALQTSINQQDMQQSPLYSPQNNMPGIQGATSSPQPQATLFHNTAGGTMNQLQNSPGSSQQTSGMFLFGIQNNCSQLLTSGPATLPDQLMAISQPGQPQNEGQPPVTTLLSQQMPENSPLASSINTNQNIEKIDLLVSLQNQGNNLTGSF
notes: NFAT5 (TonEBP), human, 1531 a.a. protein; C-terminal domain (CTD), a.a; 544-1531; The methods for the bacterial construct (pET-28a) say only 'NFAT5 CTD'; also called GFP-NFAT5 CTD; NFAT5 GFP-CTD; not shown: sfGFP, N-terminal, kept
B4: untagged NFAT5 CTD (CTD protein lacking the GFP tag) (domain or fragment, human, UniProt O94916 544-1531, looked up)
chain: B3 chain
notes: NFAT5 (TonEBP), human, 1531 a.a. protein; C-terminal domain (CTD), a.a; 544-1531; source: E. coli BL21 (DE3) pLysS, purified from inclusion bodies (8 M urea extraction, Superdex 200)

Target: the molecule itself
Assay: in vitro phase separation (droplet) assay, fluorescence or brightfield microscopy; purified protein in droplet buffer (20 mM Na-HEPES pH 7.4, 1 mM TCEP) with 5% dextran, NaCl (or other salts) added to the indicated osmolarity; 10 min at room temperature; self-association into droplets

Row | Protein | binding result
1 | B1 | binds
2 | B2 | binds
3 | B3 | binds
4 | B4 | binds

Reference: publication doi:10.1101/2023.09.23.559074, “Direct ionic stress sensing and mitigation by the transcription factor NFAT5” (bioRxiv, 2023)
